# According to patent US20240376195A1 (BEIGENE, published 2024):
# T1: his-tagged human NKp30 (human, UniProt O14931 19-135)
# T1 construct: Analyte of the SPR assay; not shown: his tag
# T1 sequence: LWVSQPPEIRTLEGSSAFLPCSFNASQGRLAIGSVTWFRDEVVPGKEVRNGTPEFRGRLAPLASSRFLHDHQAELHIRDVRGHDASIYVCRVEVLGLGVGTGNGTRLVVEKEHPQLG
# T2: NKp30 (form in the assay not stated) (UniProt O14931 19-135, limits assumed)
# T2 construct: It is inferred from BGA1831 being an anti-NKp30 antibody
# T2 sequence (looked up): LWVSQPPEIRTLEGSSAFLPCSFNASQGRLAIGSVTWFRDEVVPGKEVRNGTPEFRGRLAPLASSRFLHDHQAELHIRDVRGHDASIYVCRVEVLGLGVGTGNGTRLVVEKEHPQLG
# T3: NKp30-mIgG2a (human; mouse, UniProt O14931 19-135)
# T3 construct: also called soluble NKp30; NKp30-mIgG2a fusion protein; not shown: Fc domain of mouse IgG2a, fused to the C-terminus of the NKp30 ECD
# T3 sequence: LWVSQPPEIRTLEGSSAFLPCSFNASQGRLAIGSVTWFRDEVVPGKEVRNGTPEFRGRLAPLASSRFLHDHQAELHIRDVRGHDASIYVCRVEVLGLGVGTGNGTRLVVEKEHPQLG
# T4: full-length human NKp30 on NK92MI cells (human, UniProt O14931 19-201)
# T4 construct: Full-length human NKp30 over-expressed on NK92MI cells; also called huNKp30; native NKp30
# T4 sequence: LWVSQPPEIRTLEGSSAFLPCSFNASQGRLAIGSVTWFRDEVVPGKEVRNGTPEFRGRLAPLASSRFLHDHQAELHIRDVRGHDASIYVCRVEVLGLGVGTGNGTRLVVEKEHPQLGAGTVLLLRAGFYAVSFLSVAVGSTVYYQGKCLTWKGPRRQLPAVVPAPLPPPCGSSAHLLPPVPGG
# Columns and labels:
# his-tagged human NKp30 [1] = target: T1, his-tagged human NKp30; test: SPR, antibody captured on anti-human Fc surface; NKp30 analyte not named in Example 4
# Source text: Further engineered versions of humanized monoclonal antibodies were derived from the mutation process described as above and characterized in detail. […] For affinity determination, antibodies were captured by anti-human Fc surface, and used in the affinity assay based on surface plasmon resonance (SPR) technology. All the humanization antibodies shown above were also confirmed for functional activities on primary human immune cells isolated from healthy donors (described in Example 7 below).
# his-tagged human NKp30 [2] = target: T1, his-tagged human NKp30; test: SPR (BIAcore T-200), antibody captured by anti-mouse IgG, his-tagged human NKp30 as analyte
# Source text: The NKp30 antibodies with high binding activities in ELISA and FACS, as well as with potent functional activities in the cell-based assays (described in Example 1 above) were characterized for their binding kinetics by SPR assays using BIAcore™ T-200 (GE Life Sciences). Briefly, an anti-mouse IgG antibody was immobilized on an activated CM5 biosensor chip (Cat. No.: BR100530, GE Life Sciences). Purified NKp30 murine antibodies were flowed over the chip surface and captured by the anti-mouse IgG antibody. Then a serial dilution (0.098 nM to 25 nM) of his-tagged human NKp30 was flowed over the chip surface and changes in surface plasmon resonance signals were analyzed to calculate the association rates (kₒₙ) and dissociation rates (koff) by using the one-to-one Langmuir binding model (BIA Evaluation Software, GE Life Sciences). The equilibrium dissociation constant (KD) was calculated as the ratio koff/kₒₙ.
# [3] = target: T2, NKp30 (form in the assay not stated); test: flow cytometry, y axis NKp30 (MFI); cells not named in the legend or on the sheet
# NKp30-mIgG2a = target: T3, NKp30-mIgG2a; test: flow cytometry blocking assay; binding of NKp30-mIgG2a to B7-H6 on HCT116/B7-H6 cells in the presence of serially diluted antibody
# Protocol: A schematic diagram showing the inhibition of NKp30/B7-H6 interactions by anti-NKp30 Ab. The binding of soluble NKp30 (NKp30-mIgG2a fusion protein) to B7-H6-expressing HCT116 cells (HCT116/B7-H6) was determined by flow cytometry. The blockade of NKp30/B7-H6 interaction was quantitatively measured by adding serially diluted BGA1833/IgG1. Results are shown in mean±SD of duplicates.
# (Joyce et al., 2011 PNAS 108:6223-6228). […] In addition, these two residues were previously determined to be important for NKp30/B7-H6 interaction in a structural study (Li et al., J Exp Med. 2011 208:703-714). […] For this assay, a B7-H6 stably transduced cell line HCT116/B7-H6 was incubated with NKp30-mIgG2a in the presence of serially diluted BGA1833, followed by detection with […].
# [4] = target: T4, full-length human NKp30 on NK92MI cells; test: flow cytometry on live NK92MI cells over-expressing human NKp30, goat anti-human IgG detection
# Protocol: To evaluate the binding activity of anti-NKp30 antibodies to native NKp30 on living cells, NK92MI cells were transfected to over-express human NKp30. Live NK92mi/NKp30 expressing cells were seeded in 96-well plates and were incubated with a serial dilution of anti-NKp30 antibodies. Goat anti-Human IgG was used as secondary antibody to detect antibody binding to the cell surface. EC₅₀ values for dose-dependent binding to human native NKp30 were determined by fitting the dose-response data to the four-parameter logistic model with GraphPad Prism™.
Binder,Kd (his-tagged human NKp30 [1]) [nM],koff (his-tagged human NKp30 [1]) [s⁻¹],kon (his-tagged human NKp30 [1]) [M⁻¹ s⁻¹],Kd (his-tagged human NKp30 [2]) [nM],koff (his-tagged human NKp30 [2]) [s⁻¹],kon (his-tagged human NKp30 [2]) [M⁻¹ s⁻¹],EC50 [3] [µg/mL],IC50 (NKp30-mIgG2a) [µg/mL],EC50 [4] [nM]
"BGA1832 (antibody, human IgG1, kappa, V domains shown) VH: QVQLVQSGAEVKKPGASVKVSCKASGYTFTSSYMHWVRQAPGQGLEWMGEIHPNRDNTNYNEKFKGRVTMTVDTSTSTVYMELSSLRSEDTAVYYCARSYYDYGGAYFDAWGQGTLVTVSS VL: DIQLTQSPSSLSASVGDRVTITCKASQDVSTAVAWYQQKPGKAPKLLIYAASYRHIGVPSRFSGSGSGTDFTLTISSLQPEDFATYYCQQHYSNPFTFGGGTKVEIKR",0.213,0.000331,1.55e+06,–,–,–,–,–,–
"mu183 (antibody, V domains shown, Murine hybridoma antibody, purified on Protein A; also called murine anti-NKp30 antibody mu183) VH: QVQLQQPGSVLVRPGASVKLSCKASGYTFTSSWMHWAKQRPGQGLEWIGEIHPNRDNTNYNEKFKGKATLTVDTSSSTAYVDLSSLTSEDSAVYYCARSYYDYGGAYFDSWGQGTTLTVSS VL: QIVLTQSHKFMSTSVGDRVSITCKASQDVSTAVAWYQQKPGQSPKLLIYAASYRHIGVPDRFTGSGSGTDFTFTISSVQAEDLAVYYCQQHYSNPFTFGSGTKLEIK",–,–,–,0.132,0.00021,1.59e+06,0.263,0.169,–
"BGA1833/IgG1 (antibody, BGA1833 with wild-type human IgG1 heavy chain; also called BGA1833 with wt IgG1) heavy: not shown light: QIQLTQSPSSLSASVGDRVTITCKASQDVSTAVAWYQQKPGKAPKLLIYAASYRHIGVPSRFSGSGSGTDFTLTISSLQPEDFATYYCQQHYSNPFTFGGGTKVEIKRTVAAPSVFIFPPSDEQLKSGTASVVCLLNNFYPREAKVQWKVDNALQSGNSQESVTEQDSKDSTYSLSSTLTLSKADYEKHKVYACEVTHQGLSSPVTKSFNRGEC",–,–,–,–,–,–,–,0.144,–
"ch183 (antibody, V domains shown, not shown: human immunoglobulin kappa constant region) VH: QVQLQQPGSVLVRPGASVKLSCKASGYTFTSSWMHWAKQRPGQGLEWIGEIHPNRDNTNYNEKFKGKATLTVDTSSSTAYVDLSSLTSEDSAVYYCARSYYDYGGAYFDSWGQGTTLTVSS VL: QIVLTQSHKFMSTSVGDRVSITCKASQDVSTAVAWYQQKPGQSPKLLIYAASYRHIGVPDRFTGSGSGTDFTFTISSVQAEDLAVYYCQQHYSNPFTFGSGTKLEIK",0.143,0.000318,2.22e+06,–,–,–,–,–,1.55
"BGA1831 (antibody, human IgG1, kappa, V domains shown, also called humanized anti-NKp30 Ab BGA1831) VH: QVQLVQSGAVVVKPGASVKVSCKASGYTFTSSWMHWARQAPGQGLEWIGEIHPNRDNTNYNEKFKGRATLTVDTSTSTAYMELSSLRSEDTAVYYCARSYYDYGGAYFDSWGQGTLVTVSS VL: QIVLTQSPSSLSASVGDRVTITCKASQDVSTAVAWYQQKPGKSPKLLIYAASYRHIGVPSRFSGSGSGTDFTFTISSLQPEDFATYYCQQHYSNPFTFGGGTKVEIKR",0.198,0.000377,1.91e+06,–,–,–,–,–,1.26
